# Measurements: patent publication US20190248902A1 (published 2019)
# Substitutions are numbered along the chain they refer to.
# T1: human ASGR-1 (wild type) (human, UniProt P07306 1-291)
# T1 construct: also called wt ASGR1; huASGR-1
# T1 sequence: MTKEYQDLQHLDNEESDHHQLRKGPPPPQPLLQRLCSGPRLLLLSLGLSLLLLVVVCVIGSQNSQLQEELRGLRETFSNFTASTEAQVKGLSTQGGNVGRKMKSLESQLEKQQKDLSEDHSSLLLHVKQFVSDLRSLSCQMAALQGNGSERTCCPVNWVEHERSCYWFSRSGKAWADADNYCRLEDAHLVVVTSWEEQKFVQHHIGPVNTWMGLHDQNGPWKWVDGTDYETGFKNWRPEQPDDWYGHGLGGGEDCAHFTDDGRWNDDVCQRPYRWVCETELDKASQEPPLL
# T2: human ASGR-1 mutant construct H203 (human, UniProt P07306 1-291)
# T2 construct: Arg/Glu scanning: non-arginine residues were changed to arginine; Transiently expressed on CHO-S cells
# T2 sequence: T1 sequence with H203R
# B1: 147E9 (antibody, V domains shown)
# VH: EVQLVESGGGLVQPGGSLRLSCAASGFTFSSYSMNWVRQAPGKGLEWVSSISGRNTTIYYADSVKGRFTISRDNAKNSLYLQMNSLRDEDTAVYYCSRDRGSCWGQGTLVTVSS
# VL: DIQMTQSPSSLSASVGDRVTITCRASQDINNYLAWFQQKPGKAPKSLIVAASSLQSGVPSKFSGSGSGTDFTLTISSLQPEDFATYYCQQYNSYPLTFGGGTKVEIK
# notes: mAb
# B2: 61A1 (antibody, V domains shown)
# VH: QVQLQESGPGLVKPSETLSLTCTVSGGSISSHFWSWIRQPAGKGLEWIGRIYIRGSTNYNPSLKSRVTMSVDTSKNQFSLKLSSVTAADTAVYYCAREGKTGGVSYFDYWGQGTLVTVSS
# VL: DIQMTQSPSSLSASVGDRVTITCRASQSISSYLNWYQQKPGKAPKLLIYAASSLQSGVPSRFSGSGSGTDFTLTISSLQPEDFAPYYCQQSYNISFTFGPGTKVDIK
# notes: mAb
# B3: 60C12 (antibody, V domains shown)
# VH: QVQLVESGGGVVQPGRSLRLSCAASGFTFSSYGMHWVRQAPGKGLEWVAVIWYDGSNKYYVDSVKGRFTISRDNSKNTLYLQMNSLRAEDTAVYYCARRYSRSWTGGMDVWGQGTTVTVSS
# VL: DIVMTQTPLSLSVTPGQPASISCKSSQSLLHSEGKTYLYWYLQKPGQPPQFLIYEVSNRFSGVPDRFSGSGSGTDFTLKISRVEAEDVGIYYCMQSIKYPLTFGGGTKVEIK
# notes: mAb
# B4: 173C11 (antibody, V domains shown)
# VH: B3 VH with M34I, V50L, W52F, V61A, Q82H, N84S, R102S, T105S
# VL: DIVMTQTPLSLSVTPGQPASISCKSSQSLLHSEGKTYLYWYLQKPGQPPQLLIYEVSHRFSGVPDRFSGSGSGTDFTLKISRVEAEDVGVYYCMQSIQLLTFGGGTKVEIK
# notes: mAb
# B5: 56E3 (antibody, V domains shown)
# VH: QVQLVQSGAEVKKPGASVKVSCKASGYTFNSYGFSWVRQAPGQGLEWMGWISAYNGNTKEAQKFQGRVTMTTDTSTSTAYMELRSLRADDTAVYYCARHDFWSGYYKGMDVWGQGTTVTVSS
# VL: not shown
# notes: mAb
# B6: 65D5 (antibody, V domains shown)
# VH: QVQLVQSGAEVKKPGASVKVSCKASGYTFPSYGISWVRQAPGQGLEWMGWISAYSGNTNYAQKLQGRVTMTTDTSTSTAYMELRSLRSDDTAVYFCARGEAVAVFDPWGQGTLVTVSS
# VL: DIQMTQSPSSLSASVGDRVTITCRASQDINNYLAWFQQKPGKAPRSLIYAASSLHSGVPSQFSASGSGSDFTLTISSLQPEDFATYYCPLYKSYPLTFGPGTKVDIK
# notes: mAb
# B7: 213B3 (antibody, V domains shown)
# VH: QVQLVESGGGVVQPGRSLRLSCAASGFTFSSYGMHWVRQAPGKGLEWVAVIWYDGSNKNYADSVKGRFTISRDNSKNTLYLQMNSLRAEDTAVYYCARDRTVGYDGFDIWGQGTMVTVSS
# VL: DIQMTQSPSSLSASVGDRVTITCRASQGIGKYLAWFQQKPGKAPKSLISAASSVLSGVPSKFSGSGSGTDFTLTISSLQPEDFATYYCQKYDTYPFTFGPGTKVDIK
# notes: mAb
# B8: 85F7 (antibody, V domains shown)
# VH: QVQLQQWGAGLLKPSEPLSLTCAVYGGSFSGPYWSWIRQPPGKGLEWIGEINHSGSTNYNPSLKSRVTISVDTSKNQFSLKLTSVTAADTAVYYCARDYGGLDVWGQGTTVTVSS
# VL: EPVLTQSPGTLSLSPGERATLSCRASQNIYSNYLAWYQQKPGQAPRLLIYGASSRATGIPDRFSGSGSGTDFTLTISRLEPEDFAVYCCQQYESSPWTFGQGTKVEIK
# notes: mAb
# B9: 199A7 (antibody, V domains shown)
# VH: QVQLVESGGGVVQPGRSLRLSCAASGFTFSNYGMHWVRQAPGKGLEWVAIIWFDGSNKYYADSVKGRFTISRDNSKNTLFLQMSSLRAEDTAVYYCAREWLQFRYYYGMDVWGQGTTVTVSS
# VL: DIQMTQSPSSLSASVGDRVTITCRASQGIRKDLGWYQQKPGKAPKRLIYAASSLQSGVPSRFSGSGSGTEFTLTISSLQPEDFATYVCLQHYRYPFTFGPGTKVDFK
# notes: mAb
# B10: 146B6 (antibody, V domains shown)
# VH: EVQLVESGGGLVQPGGSLRLSCAASGFTFSSYNMNWVRQAPGKGLEWVSYISRSSNTKHYADSVKGRFTISRDNAKNSLYLQMDSLRDEDTAVYYCARDRSGSYGYFYYYGLDVWGQGTTVTVSS
# VL: not shown
# notes: mAb
# B11: 65C12 (antibody, V domains shown)
# VH: EVQLVESGGGLVKPGGSLRLSCAASGFTFRSFSLNWVRQAPGKGLEWVSSISSSSSYIYYADSVKGRFTISRDNAKNSLYLQMNSLRAEDTAVYYCARDAYSHYWGQGTLVTVSS
# VL: EIVMTQSPATLSVFPGEGATLSCRASQSVSINLAWYQQKPGQAPRLLIYGASTRATGIPARFNASGSGTEFTLSISSLQSENFAVYYCQQYNTWPLTFGGGTKVEIK
# notes: mAb
# Target: T1, human ASGR-1 (wild type)
# Test: FACS, transfected CHO-S cells, mAb 5 ug/ml
# Experimental: (§1) The ability of human ASGR-1-specific, ligand competing antibodies to bind to the mutant hASGR-1 proteins was assessed by FACS as described above.
# (§2) Antibodies were tested for binding to the individual mutant and wild type ASGR-1 constructs using normalized antibody concentrations (5 ug/ml). CHO—S cells transiently expressing the appropriate mutated or non-mutated antigen of interest were mixed with antibody sample or controls, incubated for 1 hour at 4° C., and then washed twice. Cells with bound antibody were then incubated with Alexa Fluor® 647 IgG Fc fragment-specific detection antibody and 7-AAD viability stain for 15 minutes at 4° C., washed once and resuspended in FACS buffer. Samples were analyzed using a BD Accuri™ Flow Cytometer and an Intellicyt HyperCyt Autosampler. As a negative control, supernatants and controls were also screened against CHO—S cells transfected with empty parental vector (referred to as mock). […] Because mutant hASGR-1 expression levels varied relative to each other, sample binding data for each construct was normalized for expression by dividing the binding data from an antibody not affected by the mutations (e.g., 65C12) by the binding values of each test antibody on a given mutant construct. Also, because the antibody binding affinities varied amongst the samples, the expression corrected data (above) was further normalized by comparing test antibody binding on each mutant construct to wild type hASGR-1. Identification of specific mutations that affected test antibody binding was performed by an interquartile range (IQR) analysis to determine statistical outliers. A mutation was identified as a “hit” if the calculated values were >3× the IQR (above the 3rd quartile/upper fence) for a given mutant construct. Although IQR analysis was used here to determine signifance and identify hits, one skilled in the art will recognize that a number of methods could be employed in order to normalize the data (eg. using epitope-tagged constructs or other ASGR-1-binding antibodies directed against non-CBD epitopes).
row,Binder,FACS Binding Geomean
1,B1,40200
2,B2,40000
3,B3,31300
4,B4,28500
5,B5,33900
6,B6,41000
7,B7,15100
8,B8,33000
9,B9,17000
10,B10,24100
11,B11,56100

# Target: T2, human ASGR-1 mutant construct H203
# Test: FACS, transfected CHO-S cells, mAb 5 ug/ml
# Experimental: as §1, §2
row,Binder,FACS Binding Geomean
1,B1,21500
2,B2,20100
3,B3,19800
4,B4,13900
5,B5,20400
6,B6,20300
7,B7,12800
8,B8,16500
9,B9,9460
10,B10,14400
11,B11,25800

# Target: T1, human ASGR-1 (wild type)
# Test: FACS ratio: 65C12 geomean / this mAb geomean
# Experimental: (§3) Mutant hASGR-1 variants were constructed such that non-arginine residues were changed to arginine and where wild type arginine residues were mutated to glutamic acid. Each mutant hASGR-1 sequence was then cloned into a mammalian expression vector and used to transiently transfect CHOs cells. The ability of human ASGR-1-specific, ligand competing antibodies to bind to the mutant hASGR-1 proteins was assessed by FACS as described above.
# (§4) Antibodies were tested for binding to the individual mutant and wild type ASGR-1 constructs using normalized antibody concentrations (5 ug/ml). CHO—S cells transiently expressing the appropriate mutated or non-mutated antigen of interest were mixed with antibody sample or controls, incubated for 1 hour at 4° C., and then washed twice. Cells with bound antibody were then incubated with Alexa Fluor® 647 IgG Fc fragment-specific detection antibody and 7-AAD viability stain for 15 minutes at 4° C., washed once and resuspended in FACS buffer. Samples were analyzed using a BD Accuri™ Flow Cytometer and an Intellicyt HyperCyt Autosampler. As a negative control, supernatants and controls were also screened against CHO—S cells transfected with empty parental vector (referred to as mock). […] Because mutant hASGR-1 expression levels varied relative to each other, sample binding data for each construct was normalized for expression by dividing the binding data from an antibody not affected by the mutations (e.g., 65C12) by the binding values of each test antibody on a given mutant construct. Also, because the antibody binding affinities varied amongst the samples, the expression corrected data (above) was further normalized by comparing test antibody binding on each mutant construct to wild type hASGR-1. Identification of specific mutations that affected test antibody binding was performed by an interquartile range (IQR) analysis to determine statistical outliers. A mutation was identified as a “hit” if the calculated values were >3× the IQR (above the 3rd quartile/upper fence) for a given mutant construct.
row,Binder,Expression Normalization to mAb 65C12
1,B1,1.4
2,B2,1.4
3,B3,1.79
4,B4,1.97
5,B5,1.66
6,B6,1.37
7,B7,3.72
8,B8,1.7
9,B9,3.3
10,B10,2.32
11,B11,1

# Target: T2, human ASGR-1 mutant construct H203
# Test: FACS ratio: 65C12 geomean / this mAb geomean
# Experimental: as §3, §4
row,Binder,Expression Normalization to mAb 65C12
1,B1,1.2
2,B2,1.28
3,B3,1.3
4,B4,1.86
5,B5,1.26
6,B6,1.27
7,B7,2.01
8,B8,1.56
9,B9,2.72
10,B10,1.79
11,B11,1

# Target: T2, human ASGR-1 mutant construct H203
# Test: FACS ratio: H203 normalized value / wt normalized value
# Experimental: as §1, §2
row,Binder,Normalization to wt ASGR1 Binding
1,B1,0.858
2,B2,0.911
3,B3,0.725
4,B4,0.945
5,B5,0.762
6,B6,0.928
7,B7,0.539
8,B8,0.917
9,B9,0.826
10,B10,0.769
11,B11,1
